Drawing on patent US20210079084A1 (OPSIDIO, published 2021), this text covers binding result and EC50 for 13 molecules.

Test [1] has as its target T1, human stem cell factor isoform SCF248 (human, UniProt P21583 26-273).
T1 construct: also called hSCF248; soluble SCF
Kind of test: binding score, flow cytometry on S1/S14 hSCF248 cells.

The target in test [2] is T2, human stem cell factor isoform SCF220 (human, UniProt P21583-2 26-245).
T2 construct: whole, on cells; also called hSCF220; membrane SCF
Description: flow cytometry on S1/S14 hSCF220 cells.

The target of test [3] is T2, human stem cell factor isoform SCF220. Description: flow cytometry, directly labelled antibody on S1/S14 hSCF220 cells. The method, then: Binding of the labeled antibody to the cells was assessed by flow cytometry.
The target of test [4] is T1, human stem cell factor isoform SCF248. Description: flow cytometry on S1/S14 hSCF248 cells; printed as BC50 (50% maximal binding).
In test [5] the target is T2, human stem cell factor isoform SCF220. Description: flow cytometry on the SCF220-expressing cell line.

T1 sequence (P21583 26-273 limits assumed): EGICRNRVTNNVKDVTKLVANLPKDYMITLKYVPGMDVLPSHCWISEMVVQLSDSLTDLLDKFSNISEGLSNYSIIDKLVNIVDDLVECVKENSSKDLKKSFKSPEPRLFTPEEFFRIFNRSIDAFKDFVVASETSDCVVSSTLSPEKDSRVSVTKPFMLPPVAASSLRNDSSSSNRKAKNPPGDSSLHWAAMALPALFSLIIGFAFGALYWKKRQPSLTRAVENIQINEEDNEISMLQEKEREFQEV
T2 sequence (P21583 other isoform, or with tags, fused parts or gaps): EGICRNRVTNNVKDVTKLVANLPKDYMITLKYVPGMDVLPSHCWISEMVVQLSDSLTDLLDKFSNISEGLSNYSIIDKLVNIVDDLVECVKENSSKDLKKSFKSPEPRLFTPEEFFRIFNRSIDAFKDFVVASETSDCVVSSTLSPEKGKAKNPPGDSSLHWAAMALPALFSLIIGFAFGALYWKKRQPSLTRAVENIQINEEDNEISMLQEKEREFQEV

B1: 5H10 VH2/VK2 (antibody, V domains shown)
VH: QVQLVQSGAEVKKPGSSVKISCKSSGYAFSSYWMNWVKQRPGQGLEWIGQIYPGDGDTHYNGKFKGKATLTADKSTSTAYMELSSLRSEDTAVYFCSSSNWVGSYWGQGTLVTVSS
VL: DVVMTQSPLSLPVTLGQPASISCKSSQSLLESDGKTYLNWLQQRPGQSPRRLIYLVSRLDSGVPDRFTGSGSGTDFTLKISRVEAEDVGVYYCWQGTHLPQTFGGGTKVEIK
notes: Humanized; Only variable regions are tied to the name
For the molecule B1, the binding result in test [1] is listed as “binds”.

B2: 5H10 VH0/VK0 (chimeric 5H10) (antibody, V domains shown)
VH: QVQLQQSGAELVRPGSSVKISCKSSGYAFSSYWMNWVKQRPGQGLEWIGQIYPGDGDTHYNGKFKGKATLTADKSSSTAYMQLSRLTSEDSAVYFCSSSNWVGSYWGQGTLVTVSA
VL: not shown
notes: also called chimeric antibody 5H10
Regarding B2, the binding result in test [2] is “no binding”.

B3: murine 5H10 antibody (antibody, V domains shown)
VH: QVQLQQSGAELVRPGSSVKISCKSSGYAFSSYWMNWVKQRPGQGLEWIGQIYPGDGDTHYNGKFKGKATLTADKSSSTAYMQLSRLTSEDSAVYFCSSSNWVGSYWGQGTLVTVSA
VL: not shown
notes: Murine monoclonal from a hybridoma, kappa light chain; also called OpSCF; murine parent 5H10
In the case of B3, the binding result in test [3] is “no binding”.

B4: 5H10 VH3/VK3 (antibody, V domains shown)
VH: QVQLVQSGAEVKKPGSSVKVSCKSSGYAFSSYWMNWVRQRPGQGLEWIGQIYPGDGDTHYNGKFKGKATLTADKSTSTAYMELSSLRSEDTAVYFCSSSNWVGSYWGQGTLVTVSS
VL: DVVMTQSPLSLPVTLGQPASISCKSSQSLLESDGKTYLNWLQQRPGQSPRRLIYLVSRLDSGVPDRFSGSGSGTDFTLKISRVEAEDVGVYYCWQGTHLPQTFGGGTKVEIK
notes: as for B1
Turning to B4, the binding result in test [2] is on record as “no binding”. In test [4], this molecule returned an EC50 of 0.9 mg/L.

B5: 5H10 VH4/VK3 (antibody, V domains shown)
VH: QVQLVQSGAEVKKPGSSVKVSCKSSGYAFSSYWMNWVRQRPGQGLEWIGQIYPGDGDTHYNGKFKGRVTITADKSTSTAYMELSSLRSEDTAVYFCSSSNWVGSYWGQGTLVTVSS
VL: DVVMTQSPLSLPVTLGQPASISCKSSQSLLESDGKTYLNWLQQRPGQSPRRLIYLVSRLDSGVPDRFSGSGSGTDFTLKISRVEAEDVGVYYCWQGTHLPQTFGGGTKVEIK
notes: as for B1
As for B5, the binding result in test [2] is on record as “no binding”.

B6: 5H10 VH5/VK2 (antibody, V domains shown)
VH: QVQLVQSGAEVKKPGSSVKVSCKSSGYAFSSYWMNWVRQRPGQGLEWIGQIYPGDGDTHYNGKFQGRVTITADKSTSTAYMELSSLRSEDTAVYYCSSSNWVGSYWGQGTLVTVSS
VL: DVVMTQSPLSLPVTLGQPASISCKSSQSLLESDGKTYLNWLQQRPGQSPRRLIYLVSRLDSGVPDRFTGSGSGTDFTLKISRVEAEDVGVYYCWQGTHLPQTFGGGTKVEIK
notes: as for B1
In the case of B6, the binding result in test [2] was “no binding”.

B7: 5H10 VH3/VK2 (antibody, V domains shown)
VH: QVQLVQSGAEVKKPGSSVKVSCKSSGYAFSSYWMNWVRQRPGQGLEWIGQIYPGDGDTHYNGKFKGKATLTADKSTSTAYMELSSLRSEDTAVYFCSSSNWVGSYWGQGTLVTVSS
VL: DVVMTQSPLSLPVTLGQPASISCKSSQSLLESDGKTYLNWLQQRPGQSPRRLIYLVSRLDSGVPDRFTGSGSGTDFTLKISRVEAEDVGVYYCWQGTHLPQTFGGGTKVEIK
notes: as for B1
For the molecule B7, the binding result in test [2] is “no binding”.

B8: 5H10 VH1/VK1 (antibody, V domains shown)
VH: QVQLVQSGAELKKPGSSVKISCKSSGYAFSSYWMNWVKQRPGQGLEWIGQIYPGDGDTHYNGKFKGKATLTADKSTSTAYMELSSLTSEDSAVYFCSSSNWVGSYWGQGTLVTVSS
VL: DVVMTQSPLTLSVTLGQPASISCKSSQSLLESDGKTYLNWLQQRPGQSPRRLIYLVSRLDSGVPDRFTGSGSGTDFTLKISRVEAEDVGVYYCWQGTHLPQTFGGGTKVEIK
notes: as for B1
On to B8, for which the binding result in test [1] is reported as “binds”.

B9: 5H10 VH2/VK3 (antibody, V domains shown)
VH: QVQLVQSGAEVKKPGSSVKISCKSSGYAFSSYWMNWVKQRPGQGLEWIGQIYPGDGDTHYNGKFKGKATLTADKSTSTAYMELSSLRSEDTAVYFCSSSNWVGSYWGQGTLVTVSS
VL: DVVMTQSPLSLPVTLGQPASISCKSSQSLLESDGKTYLNWLQQRPGQSPRRLIYLVSRLDSGVPDRFSGSGSGTDFTLKISRVEAEDVGVYYCWQGTHLPQTFGGGTKVEIK
notes: as for B1
For the molecule B9, the binding result in test [5] is “no binding”.

B10: 5H10 VH4/VK2 (antibody, V domains shown)
VH: QVQLVQSGAEVKKPGSSVKVSCKSSGYAFSSYWMNWVRQRPGQGLEWIGQIYPGDGDTHYNGKFKGRVTITADKSTSTAYMELSSLRSEDTAVYFCSSSNWVGSYWGQGTLVTVSS
VL: DVVMTQSPLSLPVTLGQPASISCKSSQSLLESDGKTYLNWLQQRPGQSPRRLIYLVSRLDSGVPDRFTGSGSGTDFTLKISRVEAEDVGVYYCWQGTHLPQTFGGGTKVEIK
notes: as for B1
With B10, the binding result in test [2] is “no binding”.

B11: 5H10 VH5/VK3 (antibody, V domains shown)
VH: QVQLVQSGAEVKKPGSSVKVSCKSSGYAFSSYWMNWVRQRPGQGLEWIGQIYPGDGDTHYNGKFQGRVTITADKSTSTAYMELSSLRSEDTAVYYCSSSNWVGSYWGQGTLVTVSS
VL: DVVMTQSPLSLPVTLGQPASISCKSSQSLLESDGKTYLNWLQQRPGQSPRRLIYLVSRLDSGVPDRFSGSGSGTDFTLKISRVEAEDVGVYYCWQGTHLPQTFGGGTKVEIK
notes: as for B1
On to B11, for which, in test [2], the binding result is “no binding”.

B12: 5H10 VH1/VK3 (antibody, V domains shown)
VH: QVQLVQSGAELKKPGSSVKISCKSSGYAFSSYWMNWVKQRPGQGLEWIGQIYPGDGDTHYNGKFKGKATLTADKSTSTAYMELSSLTSEDSAVYFCSSSNWVGSYWGQGTLVTVSS
VL: DVVMTQSPLSLPVTLGQPASISCKSSQSLLESDGKTYLNWLQQRPGQSPRRLIYLVSRLDSGVPDRFSGSGSGTDFTLKISRVEAEDVGVYYCWQGTHLPQTFGGGTKVEIK
notes: as for B1
Take B12: the binding result in test [5] is “no binding”.

B13: 5H10 VH1/VK2 (antibody, V domains shown)
VH: QVQLVQSGAELKKPGSSVKISCKSSGYAFSSYWMNWVKQRPGQGLEWIGQIYPGDGDTHYNGKFKGKATLTADKSTSTAYMELSSLTSEDSAVYFCSSSNWVGSYWGQGTLVTVSS
VL: DVVMTQSPLSLPVTLGQPASISCKSSQSLLESDGKTYLNWLQQRPGQSPRRLIYLVSRLDSGVPDRFTGSGSGTDFTLKISRVEAEDVGVYYCWQGTHLPQTFGGGTKVEIK
notes: as for B1
B13: the binding result in test [1] is given as “binds”.
